Measured values as given in PMC3537504.
pKd: −log10 of the molar value.

What was measured:
[1] = biological target: GST-βII-spectrin-1-4 (GST fusion of repeats 1-4 of βII-spectrin) (rat); test: SPR
[2] = biological target: MBP-αII-cardi+ (MBP fusion of repeats 18-21 of αII-spectrin with the 21-amino acid cardi+ insert) (rat); test: far-Western, overlay or dot blot

| Substance | pKd [1] | fold lower binding (response units at saturation) than MBP-αII-cardi− [1] | binding relative to the αII-cardi− protein (blot overlay, densitometry) [2] |
| --- | --- | --- | --- |
| MBP-αII-cardi+ (MBP fusion of repeats 18-21 of αII-spectrin with the 21-amino acid cardi+ insert) (domain or fragment) | 8.96 | 2 fold | – |
| GST-βII-spectrin-1-4 (GST fusion of repeats 1-4 of βII-spectrin) (domain or fragment) | – | – | 0.5 fold |
| MBP-αII-cardi− (MBP fusion of repeats 18-21 of αII-spectrin without the cardi+ insert) (domain or fragment) | 9.24 | – | – |
